Measurements from article PMC2615553 (Immunity, 2008).

Biological target: T1, plexinD1-Fc (ectodomain of mouse plexinD1 as C-terminal Fc-fusion construct) (mouse, UniProt Q3UH93 49-1271)
T1 sequence (looked up): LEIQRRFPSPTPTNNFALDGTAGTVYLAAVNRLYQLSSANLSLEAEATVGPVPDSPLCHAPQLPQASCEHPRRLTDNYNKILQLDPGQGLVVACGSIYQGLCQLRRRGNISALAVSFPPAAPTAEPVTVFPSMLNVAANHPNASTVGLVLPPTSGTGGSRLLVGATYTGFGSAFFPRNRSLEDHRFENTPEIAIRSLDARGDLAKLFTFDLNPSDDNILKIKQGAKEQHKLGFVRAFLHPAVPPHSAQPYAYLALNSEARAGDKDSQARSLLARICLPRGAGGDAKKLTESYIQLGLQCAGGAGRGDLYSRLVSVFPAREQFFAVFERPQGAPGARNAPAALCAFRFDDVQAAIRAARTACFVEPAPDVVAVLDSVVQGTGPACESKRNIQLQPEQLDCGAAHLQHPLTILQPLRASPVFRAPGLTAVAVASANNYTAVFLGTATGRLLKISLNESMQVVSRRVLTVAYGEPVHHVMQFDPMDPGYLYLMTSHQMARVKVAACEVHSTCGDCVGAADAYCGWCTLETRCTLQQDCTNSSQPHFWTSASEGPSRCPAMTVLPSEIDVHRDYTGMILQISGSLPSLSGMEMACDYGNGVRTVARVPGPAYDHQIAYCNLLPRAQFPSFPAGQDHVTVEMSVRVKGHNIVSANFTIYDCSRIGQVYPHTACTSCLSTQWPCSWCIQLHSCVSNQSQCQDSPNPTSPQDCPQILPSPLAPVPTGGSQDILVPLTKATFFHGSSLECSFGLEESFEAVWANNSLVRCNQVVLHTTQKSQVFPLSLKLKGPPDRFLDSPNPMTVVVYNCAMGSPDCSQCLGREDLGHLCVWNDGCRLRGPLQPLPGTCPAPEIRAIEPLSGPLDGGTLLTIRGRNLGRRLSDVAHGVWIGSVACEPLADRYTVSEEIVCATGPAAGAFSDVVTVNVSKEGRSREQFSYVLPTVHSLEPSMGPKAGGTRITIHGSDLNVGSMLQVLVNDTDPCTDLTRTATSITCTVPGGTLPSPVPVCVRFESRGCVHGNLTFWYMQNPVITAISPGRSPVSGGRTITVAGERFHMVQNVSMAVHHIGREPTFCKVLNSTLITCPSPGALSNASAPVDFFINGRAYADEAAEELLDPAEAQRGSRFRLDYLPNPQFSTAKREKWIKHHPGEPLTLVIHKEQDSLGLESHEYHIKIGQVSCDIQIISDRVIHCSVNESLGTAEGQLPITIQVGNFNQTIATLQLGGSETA
Experiment: SPR

Kd: 43.4 nM
B1: sema3E-Fc (semaphorin 3E as C-terminal Fc-fusion construct) (Fc fusion, UniProt P70275 26-775, looked up)
chain: ANPSYPRLRLSHKELLELNRTSIFQSPLGFLDLHTMLLDEYQERLFVGGRDLVYSLNLERVSDGYREIYWPSTAVKVEECIMKGKDANECANYIRVLHHYNRTHLLTCATGAFDPHCAFIRVGHHSEEPLFHLESHRSERGRGRCPFDPNSSFVSTLVGNELFAGLYSDYWGRDSAIFRSMGKLGHIRTEHDDERLLKEPKFVGSYMIPDNEDRDDNKMYFFFTEKALEAENNAHTIYTRVGRLCVNDMGGQRILVNKWSTFLKARLVCSVPGMNGIDTYFDELEDVFLLPTRDPKNPVIFGLFNTTSNIFRGHAVCVYHMSSIREAFNGPYAHKEGPEYHWSLYEGKVPYPRPGSCASKVNGGKYGTTKDYPDDAIRFARMHPLMYQPIKPVHKKPILVKTDGKYNLRQLAVDRVEAEDGQYDVLFIGTDTGIVLKVITIYNQETEWMEEVILEELQIFKDPAPIISMEISSKRQQLYIGSASAVAQVRFHHCDMYGSACADCCLARDPYCAWDGISCSRYYPTGAHAKRRFRRQDVRHGNAAQQCFGQQFVGDALDRTEERLAYGIESNSTLLECTPRSLQAKVIWFVQKGRDVRKEEVKTDDRVVKMDLGLLFLRVRKSDAGTYFCQTVEHNFVHTVRKITLEVVEEHKVEGMFHKDHEEERHHKMPCPPLSGMSQGTKPWYKEFLQLIGYSNFQRVEEYCEKVWCTDKKRKKLKMSPSKWKYANPQEKRLRSKAEHFRLPRHTLLS
